This is an account of results in paper PMC5003812 (Cell Reports, 2016).

The test has as its target recombinant human FOXO3a (human, UniProt O43524 1-673). Description: pull-down.

recombinant human FOXO3a, sequence (O43524 whole entry): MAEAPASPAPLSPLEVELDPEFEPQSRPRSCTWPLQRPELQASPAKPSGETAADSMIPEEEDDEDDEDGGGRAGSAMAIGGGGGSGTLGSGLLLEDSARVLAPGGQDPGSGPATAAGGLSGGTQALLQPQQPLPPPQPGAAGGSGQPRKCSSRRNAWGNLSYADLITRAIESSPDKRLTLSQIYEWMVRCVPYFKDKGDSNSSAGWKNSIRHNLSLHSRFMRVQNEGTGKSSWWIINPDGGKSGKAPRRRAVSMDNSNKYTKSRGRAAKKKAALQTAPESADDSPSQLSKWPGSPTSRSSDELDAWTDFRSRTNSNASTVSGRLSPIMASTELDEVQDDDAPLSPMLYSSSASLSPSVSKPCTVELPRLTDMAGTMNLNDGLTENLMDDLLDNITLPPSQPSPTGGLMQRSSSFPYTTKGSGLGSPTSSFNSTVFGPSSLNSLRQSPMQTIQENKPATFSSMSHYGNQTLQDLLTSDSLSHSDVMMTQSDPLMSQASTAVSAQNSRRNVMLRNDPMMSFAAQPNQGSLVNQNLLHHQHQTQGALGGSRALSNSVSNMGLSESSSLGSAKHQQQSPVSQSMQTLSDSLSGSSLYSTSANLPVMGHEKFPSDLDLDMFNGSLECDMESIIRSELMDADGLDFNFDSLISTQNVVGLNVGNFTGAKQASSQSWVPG

B1: GST-ATM fragment spanning 2,842–3,056 aa (domain or fragment)
chain: PAIWFEKRLAYTRSVATSSIVGYILGLGDRHVQNILINEQSAELVHIDLGVAFEQGKILPTPETVPFRLTRDIVDGMGITGVEGVFRRCCEKTMEVMRNSQETLLTIVEVLLYDPLFDWTMNPLKALYLQQRPEDETELHPTLNADDQECKRNLSDIDQSFNKVAERVLMRLQEKLKGVEEGTVLSVGGQVNLLIQQAIDPKNLSRLFPGWKAWV
B1: the binding result is recorded as “binds”.
